# Source: the supplement of paper PMC6757056
# ± gives the standard deviation of the averaged measurements.
# B1: library; a variant is named by its letters at N, in order (parent)
# chain: GCUGUCACCGGUGCUUGGUACGUUAUAUUCAGCCGGUCUGAUGAGUCUNNNNNNAGACGAAACAGC
# Legend:
# (6R,S)-folinic acid [1] = variants of: B1; experiment: normalized RNA/DNA level without ligand (relative to sTRSVctl = 100) (log10 (% of sTRSVctl)); HEK293T overexpressing SLC46A1; higher = less ribozyme self-cleavage, higher mRNA level; settings: without (6R,S)-folinic acid; ligand present: no
# Method in brief: (§1)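 HEK293T cells received ligand, where used, 1 h before being transfected with 4 µg per 6-well well of library plasmids encoding reporter-linked ribozyme switches. After 72 h, RNA was extracted with EDTA and sequenced. RNA level was derived from RNA reads per DNA read, normalized to a spiked-in non-cleaving sequence or the top sequences, then scaled and log-transformed. Values were ×100 then log10, the top set was 25 sequences, and the minimum was 100 DNA reads.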
# (6R,S)-folinic acid [2] = variants of: B1; experiment: normalized RNA/DNA level with ligand (relative to sTRSVctl = 100) (log10 (% of sTRSVctl)); HEK293T overexpressing SLC46A1; ligand concentration (+) RNA-Seq: 6 mM; higher = less ribozyme self-cleavage, higher mRNA level; settings: with (6R,S)-folinic acid; ligand present: yes
# Method in brief: as §1
Variant,"normalized RNA/DNA level without ligand (log10) ((6R,S)-folinic acid [1])","normalized RNA/DNA level with ligand (log10) ((6R,S)-folinic acid [2])"
CAUUCG,2.037 ± 0.0077,2 ± 0.032
CAUUCC,2.06 ± 0.033,2.02 ± 0.06
UAUCAC,1.978 ± 0.0043,1.99 ± 0.013
AAUCCG,1.969 ± 0.014,2.02 ± 0.055
AAUCCC,2.023 ± 0.003,2 ± 0.043
AAUCUC,2.068 ± 0.011,2.04 ± 0.034
AAUCUG,1.958 ± 0.0061,2.04 ± 0.048
AAUGGA,1.925 ± 0.0083,1.99 ± 0.033
AAUGGC,1.997 ± 0.012,2.029 ± 0.019
AAGGAC,1.966 ± 0.0074,1.99 ± 0.037
GAUGCU,1.992 ± 0.0031,2 ± 0.039
GAUGCC,2.014 ± 0.0064,2.023 ± 0.013
CAGUAG,1.93 ± 0.023,1.99 ± 0.052
CAGUAC,1.96 ± 0.036,1.97 ± 0.04
CAGUAU,1.951 ± 0.0075,2.016 ± 0.013
UAGGAG,1.63 ± 0.024,1.91 ± 0.033
GAUUAC,1.987 ± 0.014,2.017 ± 0.017
CAGCGG,1.984 ± 0.0099,2.06 ± 0.029
CAGCGU,1.999 ± 0.0031,1.99 ± 0.053
AAUGCU,2.022 ± 0.01,2.02 ± 0.045

Variant,"normalized RNA/DNA level without ligand (log10) ((6R,S)-folinic acid [1])","normalized RNA/DNA level with ligand (log10) ((6R,S)-folinic acid [2])"
AAUGCC,2.026 ± 0.012,2.03 ± 0.03
CAGGAG,1.92 ± 0.022,2.03 ± 0.03
CAGGAU,1.9357 ± 0.0006,1.97 ± 0.049
CAGGAA,1.928 ± 0.0064,1.99 ± 0.05
CAUGGA,2.0099 ± 0.0018,2.04 ± 0.025
CAUGGU,1.903 ± 0.019,1.95 ± 0.037
CAUGGG,1.91 ± 0.015,2.008 ± 0.013
CAUGGC,2.04 ± 0.022,2.03 ± 0.03
AAGUUC,2.031 ± 0.017,2.02 ± 0.054
AAGUUU,2.009 ± 0.017,2.01 ± 0.033
CAUAGC,1.9903 ± 0.00018,1.98 ± 0.047
CAUAGU,2.003 ± 0.013,2.025 ± 0.0053
CAUAGG,1.911 ± 0.019,1.998 ± 0.0083
CAUAGA,2.002 ± 0.0073,2.01 ± 0.033
CAUGCA,1.996 ± 0.0096,2.01 ± 0.022
CAUGCG,2.01 ± 0.019,2.01 ± 0.032
CAUGCU,2.051 ± 0.019,2.05 ± 0.064
CAUGCC,2.058 ± 0.0046,2.029 ± 0.014
UAUCUG,1.878 ± 0.017,2 ± 0.023
UAUCUC,2.053 ± 0.018,2.03 ± 0.027

Variant,"normalized RNA/DNA level without ligand (log10) ((6R,S)-folinic acid [1])","normalized RNA/DNA level with ligand (log10) ((6R,S)-folinic acid [2])"
UAUCUA,1.987 ± 0.0076,2.03 ± 0.028
UAUCUU,2.007 ± 0.005,2.05 ± 0.021
UAUCGA,1.927 ± 0.0098,2 ± 0.028
UAUCGC,2.014 ± 0.0075,2.03 ± 0.043
UAUCGU,1.947 ± 0.0084,2.01 ± 0.038
AAGCUU,2.01 ± 0.019,2.012 ± 0.0064
AAGCUC,2.055 ± 0.019,2.054 ± 0.014
AAGCUA,1.991 ± 0.0072,2 ± 0.024
AAGCUG,2.01 ± 0.0066,2.048 ± 0.0075
CAUUAA,1.953 ± 0.0081,1.976 ± 0.014
CAUUAG,1.94 ± 0.037,1.985 ± 0.0055
AAUUGC,2.006 ± 0.0074,2.01 ± 0.039
GAGCGU,1.982 ± 0.0095,2 ± 0.048
GAGCGG,1.982 ± 0.011,2.06 ± 0.031
GAUCCG,2.0564 ± 0.0019,2.05 ± 0.063
GAUCCC,2.06 ± 0.033,2.0517 ± 0.00022
GAUCCA,2.034 ± 0.0061,2.02 ± 0.039
GAUCCU,2.066 ± 0.02,2.06 ± 0.053
